From US20230340140A1 (INNATE PHARMA, published 2023) come the findings set out here.

The target in assay [1] is T1, Human C5aR (C5aR1) (human, UniProt P21730 1-350).
T1 construct: Native receptor on human neutrophils/granulocytes (blood of patients or healthy volunteers); also called C5a receptor
T1 sequence: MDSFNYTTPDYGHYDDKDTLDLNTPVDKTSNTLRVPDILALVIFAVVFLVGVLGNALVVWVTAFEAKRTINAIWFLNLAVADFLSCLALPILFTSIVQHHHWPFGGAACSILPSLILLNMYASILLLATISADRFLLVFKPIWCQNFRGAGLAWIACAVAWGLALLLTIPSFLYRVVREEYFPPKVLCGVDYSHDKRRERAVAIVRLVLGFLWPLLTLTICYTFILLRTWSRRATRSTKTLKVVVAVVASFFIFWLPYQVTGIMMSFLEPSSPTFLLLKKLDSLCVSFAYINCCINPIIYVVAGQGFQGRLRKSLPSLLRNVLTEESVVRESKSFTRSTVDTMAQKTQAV
The assay is described as follows: EC50 of C5aR saturation in the PD part of the PKPD model, derived from PK/receptor saturation data of the phase I trial; PD parameter of the PKPD model, from phase I PK/receptor saturation data; not in vitro. The text has this:
A PKPD model was built in Phoenix 64 WinNonLin version 8.1.0.3530, to predict avdoralimab serum concentrations in blood post s.c. administration, as well as C5aR saturation. Pharmacokinetics of therapeutic mAbs are usually modelled using a two-compartment model (Deng et al. 2011 MAbs 3(1): 61-66). Based on the PK results described in Example 1, avdoralimab is expected to display PK properties similar to other therapeutic antibodies in humans, except for compound-specific target-mediated drug disposition (TMDD). This TMDD effect can be modelled by an additional non-linear elimination added to the model (Wang et al. 2016 Biopharm. Drug Dispos. 37: 51-65). […] Absorption rate (Ka) and bioavailability (Ba) for s.c. administration were estimated based on PK results for Example 1. EC₅₀ in the PD part of PKPD model is derived from PK/RSA data observed in phase I clinical trial, and is similar to EC₅₀ binding to human neutrophils in vitro=0.34 nM=51 ng/mL in FACS titration assays.

Assay [2] deals with T1, Human C5aR (C5aR1). The assay is described as follows: FACS titration on human neutrophils in vitro; FACS titration on human neutrophils in vitro, given in nM.
Assay [3] has as its target T1, Human C5aR (C5aR1). Briefly: cell-based or functional assay.

B1: Avdoralimab (antibody, human IgG1, kappa, V domains shown)
VH: EVQLVESGGGLVQPGGSLRLSCAASGFTFSSYVMHWVRQATGKGLEWVSAIDTGGGTYYADSVKGRFTISRENAKNSLYLQMNSLRAGDTAVYYCARDYYYYASGSYYKAFDIWGQGTMVTVSS
VL: EIVLTQSPGTLSLSPGERATLSCRASQSVSSRYLAWYQQKPGQAPRLLIYGASSRATGIPDRFSGSGSGTDFTLTISRLEPEDFAVYYCQQYGSPLTFGQGTKLEIKR
notes: also called IPH5401
On to B1, for which the EC50 with Human C5aR (C5aR1) [1] worked out at 0.05 µg/mL; in the assay with Human C5aR (C5aR1) [2], 340 pM. For the same molecule, in the assay with Human C5aR (C5aR1) [3], the “EC50 for inhibition of C5a-induced CD11b expression on neutrophils in human whole blood (flow cytometry, MedFI, normalized)” value stood at 0.34 µg/mL.

For orientation: EC50 means the concentration giving half of the maximal effect. The low end stands for higher potency in that assay, the high end for lower potency in that assay.
